Laboratory results: US5879680A, “Cloned DNA for synthesizing unique glucocerebrosidase” (The United States of America as represented by the …, priority 1995, dated 1999)

Key:
[1] = substrate: Cc1cc(=O)oc2cc(O[C@@H]3O[C@H](CO)[C@@H](O)[C@H](O)[C@H]3O)ccc12; experiment: purified protein, by the assay type; format: biochemical, human; conditions: other: recombinant enzyme in the media, pH 5.9, 100 mM potassium phosphate, 0.15% Triton X-100, 0.125% sodium taurocholate, 37.0 °C
Protocol: For pH profile and inhibition studies, glucocerebrosidase activity was measured using 100 mM potassium phosphate buffer containing 0.15% Triton X-100, 2.5 μl of β-D-[1-^14 C] glucocerebroside (7.5 mg/ml in sodium taurocholate at 50 mg/ml), and the sample in the total volume of 200 ul. Preincubations with conduritol-B-epoxide were for 30 min at 37° C. […] Purification of recombinant glucocerebrosidase was also monitored using 4MUGP.

[2] = substrate: Cc1cc(=O)oc2cc(O[C@@H]3O[C@H](CO)[C@@H](O)[C@H](O)[C@H]3O)ccc12; experiment: purified protein, by the assay type; conditions: other: recombinant enzyme in the cell pellet, pH 5.9, 100 mM potassium phosphate, 0.15% Triton X-100, 0.125% sodium taurocholate, 37.0 °C

Protein | Km [1] [mM] | Km [2] [mM]
recombinant human glucocerebrosidase produced in baculovirus expression system (SF9 cells), culture media enzyme (Homo sapiens) (protein, made in house; host or cells: Spodoptera frugiperda SF9 cells, recombinant baculovirus (AcNPV, pAc373/GC)) ARPCIPKSFGYSSVVCVCNATYCDSFDPPTFPALGTFSRYESTRSGRRMELSMGPIQANHTGTGLLLTLQPEQKFQKVKGFGGAMTDAAALNILALSPPAQNLLLKSYFSEEGIGYNIIRVPMASCDFSIRTYTYADTPDDFQLHNFSLPEEDTKLKIPLIHRALQLAQRPVSLLASPWTSPTWLKTNGAVNGKGSLKGQPGDIYHQTWARYFVKFLDAYAEHKLQFWAVTAENEPSAGLLSGYPFQCLGFTPEHQRDFIARDLGPTLANSTHHNVRLLMLDDQRLLLPHWAKVVLTDPEAAKYVHGIAVHWYLDFLAPAKATLGETHRLFPNTMLFASEACVGSKFWEQSVRLGSWDRGMQYSHSIITNLLYHVVGWTDWNLALNPEGGPNWVRNFVDSPIIVDITKDTFYKQPMFYHLGHFSKFIPEGSQRVGLVASQKNDLDAVALMHPDGSAVVVVLNRSSKDVPLTIKDPAVGFLETISPGYSIHTYLWRRQ | 3.3 | –
recombinant human glucocerebrosidase produced in baculovirus expression system (SF9 cells), cell pellet enzyme (Homo sapiens) (protein) ARPCIPKSFGYSSVVCVCNATYCDSFDPPTFPALGTFSRYESTRSGRRMELSMGPIQANHTGTGLLLTLQPEQKFQKVKGFGGAMTDAAALNILALSPPAQNLLLKSYFSEEGIGYNIIRVPMASCDFSIRTYTYADTPDDFQLHNFSLPEEDTKLKIPLIHRALQLAQRPVSLLASPWTSPTWLKTNGAVNGKGSLKGQPGDIYHQTWARYFVKFLDAYAEHKLQFWAVTAENEPSAGLLSGYPFQCLGFTPEHQRDFIARDLGPTLANSTHHNVRLLMLDDQRLLLPHWAKVVLTDPEAAKYVHGIAVHWYLDFLAPAKATLGETHRLFPNTMLFASEACVGSKFWEQSVRLGSWDRGMQYSHSIITNLLYHVVGWTDWNLALNPEGGPNWVRNFVDSPIIVDITKDTFYKQPMFYHLGHFSKFIPEGSQRVGLVASQKNDLDAVALMHPDGSAVVVVLNRSSKDVPLTIKDPAVGFLETISPGYSIHTYLWRRQ | – | 3.6
